# Source: PMC10842050 (Journal of molecular biology, 2023)
# B1: P22 portal protein gp1, P26744 1-725 (natural protein)
# chain: MADNENRLESILSRFDADWTASDEARREAKNDLFFSRVSQWDDWLSQYTTLQYRGQFDVVRPVVRKLVSEMRQNPIDVLYRPKDGARPDAADVLMGMYRTDMRHNTAKIAVNIAVREQIEAGVGAWRLVTDYEDQSPTSNNQVIRREPIHSACSHVIWDSNSKLMDKSDARHCTVIHSMSQNGWEDFAEKYDLDADDIPSFQNPNDWVFPWLTQDTIQIAEFYEVVEKKETAFIYQDPVTGEPVSYFKRDIKDVIDDLADSGFIKIAERQIKRRRVYKSIITCTAVLKDKQLIAGEHIPIVPVFGEWGFVEDKEVYEGVVRLTKDGQRLRNMIMSFNADIVARTPKKKPFFWPEQIAGFEHMYDGNDDYPYYLLNRTDENSGDLPTQPLAYYENPEVPQANAYMLEAATSAVKEVATLGVDTEAVNGGQVAFDTVNQLNMRADLETYVFQDNLATAMRRDGEIYQSIVNDIYDVPRNVTITLEDGSEKDVQLMAEVVDLATGEKQVLNDIRGRYECYTDVGPSFQSMKQQNRAEILELLGKTPQGTPEYQLLLLQYFTLLDGKGVEMMRDYANKQLIQMGVKKPETPEEQQWLVEAQQAKQGQQDPAMVQAQGVLLQGQAELAKAQNQTLSLQIDAAKVEAQNQLNAARIAEIFNNMDLSKQSEFREFLKTVASFQQDRSEDARANAELLLKGDEQTHKQRMDIANILQSQRQNQPSGSVAETPQ
# B2: P22 tail needle gp26 (natural protein, bacteriophage P22)
# chain: MADPSLNNPVVIQATRLDASILPRNVFSKSYLLYVIAQGTDVGAIAGKANEAGQGAYDAQVKNDEQDVELADHEARIKQLRIDVDDHESRITANTKAITALNVRVTTAEGEIASLQTNVSALDGRVTTAENNISALQADYVSKTATTSQSLASPLNVTTSYSVGGKKVLGARQTGWTAATGTANKGVFDADLTFAVSDTYTQSEIQAIANALITERRRTKALEDALRAHGLID
# B3: P22 head-to-tail adapter gp4 (natural protein, bacteriophage P22)
# chain: MQIKTKGDLVRAALRKLGVASDATLTDVEPQSMQDAVDDLEAMMAEWYQDGKGIITGYVFSDDENPPAEGDDHGLRSSAVSAVFHNLACRIAPDYALEATAKIIATAKYGKELLYKQTAISRAKRAPYPSRMPTGSGNSFANLNEWHYFPGEQNADSTTPHDEGNG
# Columns and labels:
# [1] = target: T1, P22 portal protein gp1 (bacteriophage P22), P26744; experiment: cryo-EM structure; conditions: remark: other sources report otherwise
# T1 chain: B1 chain
# cryo-EM structure = target: the molecule itself; experiment: cryo-EM structure
Binder,stoichiometry N [1],stoichiometry N (cryo-EM structure)
B1,12,
B2,,3
B3,,12
